Experimental data: article PMC6321254

Assays:
HA-CXCR1-RLuc (human) [1] = target: HA-CXCR1-RLuc (human) (UniProt P25024)
HA-CXCR1-RLuc (human) [2] = target: HA-CXCR1-RLuc (human) (UniProt P25024); remark: listed apart in the source
HA-CXCR1-RLuc (human) [3] = target: HA-CXCR1-RLuc (human) (UniProt P25024); remark: listed apart in the source

HA-CXCR1-RLuc (human), sequence (P25024 2-350): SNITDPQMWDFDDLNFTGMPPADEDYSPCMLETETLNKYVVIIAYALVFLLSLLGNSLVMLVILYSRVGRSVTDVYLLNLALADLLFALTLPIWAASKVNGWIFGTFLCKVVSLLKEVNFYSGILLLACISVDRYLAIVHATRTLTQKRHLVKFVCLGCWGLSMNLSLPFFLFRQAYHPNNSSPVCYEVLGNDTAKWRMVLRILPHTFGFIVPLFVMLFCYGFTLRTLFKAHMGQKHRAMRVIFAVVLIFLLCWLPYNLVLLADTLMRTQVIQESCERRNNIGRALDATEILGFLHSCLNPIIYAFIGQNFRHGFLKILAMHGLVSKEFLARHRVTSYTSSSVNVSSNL

With CXCL8(6-77) (ligand) the Gαi-dependent reduction of forskolin-raised cAMP (AlphaScreen cAMP assay) in HEK-293T cells transfected with CXCR1 (pcDNA6 construct without RLuc); 0.1-100 nM; potency against CXCL8(1-77) (fold (against CXCL8(1-77))) (HA-CXCR1-RLuc (human) [1]) was > 10 and the potency to induce recruitment of β-arrestin 2-EYFP to CXCR1-RLuc (BRET dose-response, HEK-293T), against CXCL8(1-77) (fold (against CXCL8(1-77))) (HA-CXCR1-RLuc (human) [2]) was 10.
CXCL8(1-77) (ligand) was tested, and the internalization of endogenous CXCR1 on freshly purified human neutrophils (flow cytometry of surface receptor; 0.1-100 nM, 1 h, 37 °C); lowest concentration with a significant effect (HA-CXCR1-RLuc (human) [3]) was > 10 nM.
For [Cit5]CXCL8(1-77) (ligand), the Gαi-dependent reduction of forskolin-raised cAMP (AlphaScreen cAMP assay) in HEK-293T cells transfected with CXCR1 (pcDNA6 construct without RLuc); 0.1-100 nM; potency against CXCL8(1-77) (fold (against CXCL8(1-77))) (HA-CXCR1-RLuc (human) [1]) was > 10.
